Sequences and labels used below:
B1: CSF1 (wild-type human CSF1) (ligand)
chain: EEVSEYCSHMIGSGHLQSLQRLIDSQMETSCQITFEFVDQEQLKDPVCYLKKAFLLVQDIMEDTMRFRDNTPNAIAIVQLQELSLRLKSCFTKDYEEHDKACVRTFYETPLQLLEKVKNVFNETKNLLDKDWNIFSKNCNNSFAECSSQD
B2: CSF1 E82K (ligand)
chain: EEVSEYCSHMIGSGHLQSLQRLIDSQMETSCQITFEFVDQEQLKDPVCYLKKAFLLVQDIMEDTMRFRDNTPNAIAIVQLQKLSLRLKSCFTKDYEEHDKACVRTFYETPLQLLEKVKNVFNETKNLLDKDWNIFSKNCNNSFAECSSQD
B3: CSF1 H9F (ligand)
chain: EEVSEYCSFMIGSGHLQSLQRLIDSQMETSCQITFEFVDQEQLKDPVCYLKKAFLLVQDIMEDTMRFRDNTPNAIAIVQLQELSLRLKSCFTKDYEEHDKACVRTFYETPLQLLEKVKNVFNETKNLLDKDWNIFSKNCNNSFAECSSQD
B4: CSF1 V78W (ligand)
chain: EEVSEYCSHMIGSGHLQSLQRLIDSQMETSCQITFEFVDQEQLKDPVCYLKKAFLLVQDIMEDTMRFRDNTPNAIAIWQLQELSLRLKSCFTKDYEEHDKACVRTFYETPLQLLEKVKNVFNETKNLLDKDWNIFSKNCNNSFAECSSQD
B5: CSF1 Q17R (ligand)
chain: EEVSEYCSHMIGSGHLRSLQRLIDSQMETSCQITFEFVDQEQLKDPVCYLKKAFLLVQDIMEDTMRFRDNTPNAIAIVQLQELSLRLKSCFTKDYEEHDKACVRTFYETPLQLLEKVKNVFNETKNLLDKDWNIFSKNCNNSFAECSSQD
B6: CSF1 V120I (ligand)
chain: EEVSEYCSHMIGSGHLQSLQRLIDSQMETSCQITFEFVDQEQLKDPVCYLKKAFLLVQDIMEDTMRFRDNTPNAIAIVQLQELSLRLKSCFTKDYEEHDKACVRTFYETPLQLLEKVKNIFNETKNLLDKDWNIFSKNCNNSFAECSSQD
B7: CSF1 V117I (ligand)
chain: EEVSEYCSHMIGSGHLQSLQRLIDSQMETSCQITFEFVDQEQLKDPVCYLKKAFLLVQDIMEDTMRFRDNTPNAIAIVQLQELSLRLKSCFTKDYEEHDKACVRTFYETPLQLLEKIKNVFNETKNLLDKDWNIFSKNCNNSFAECSSQD
B8: CSF1 Q81F (ligand)
chain: EEVSEYCSHMIGSGHLQSLQRLIDSQMETSCQITFEFVDQEQLKDPVCYLKKAFLLVQDIMEDTMRFRDNTPNAIAIVQLFELSLRLKSCFTKDYEEHDKACVRTFYETPLQLLEKVKNVFNETKNLLDKDWNIFSKNCNNSFAECSSQD
B9: CSF1 S18Q (ligand)
chain: EEVSEYCSHMIGSGHLQQLQRLIDSQMETSCQITFEFVDQEQLKDPVCYLKKAFLLVQDIMEDTMRFRDNTPNAIAIVQLQELSLRLKSCFTKDYEEHDKACVRTFYETPLQLLEKVKNVFNETKNLLDKDWNIFSKNCNNSFAECSSQD
B10: CSF1 Q79L (ligand)
chain: EEVSEYCSHMIGSGHLQSLQRLIDSQMETSCQITFEFVDQEQLKDPVCYLKKAFLLVQDIMEDTMRFRDNTPNAIAIVLLQELSLRLKSCFTKDYEEHDKACVRTFYETPLQLLEKVKNVFNETKNLLDKDWNIFSKNCNNSFAECSSQD
B11: CSF1 A76I, V117L (ligand)
chain: EEVSEYCSHMIGSGHLQSLQRLIDSQMETSCQITFEFVDQEQLKDPVCYLKKAFLLVQDIMEDTMRFRDNTPNAIIIVQLQELSLRLKSCFTKDYEEHDKACVRTFYETPLQLLEKLKNVFNETKNLLDKDWNIFSKNCNNSFAECSSQD
B12: CSF1 (1-190) HiBiT (ligand)
chain: EEVSEYCSHMIGSGHLQSLQRLIDSQMETSCQITFEFVDQEQLKDPVCYLKKAFLLVQDIMEDTMRFRDNTPNAIAIVQLQELSLRLKSCFTKDYEEHDKACVRTFYETPLQLLEKVKNVFNETKNLLDKDWNIFSKNCNNSFAECSSQDGGVSGWRLFKKIS
B13: ORK10-003-HiBit R24A (ligand)
chain: MTQSENSCTHFPGNLPNMLRDLRDAFSRVKTFFQMKDQLDNLLLKESLLEDFKGYLGCQALSEMIQFYLEEVMPQAENQDPDIKAHVNSLGENLKTLRLRLRRCHRFLPCENKSKAVEQVKNAFNKLQEKGIYKAMSEFDIFINYIEAYLYKTITPEFANMLADLRDAFSRVKTFFQMKDQLDNLLLKESLLEDFKGYLGCQALSEMIQFYLEEVMPQAENQDPDIKAHVNSLGENLKTLRLRLRRCHRFLPCENKSKAVEQVKNAFNKLQEKGIYKAMSEFDIFINYIEAYMTMGGVSGWRLFKKIS
B14: ORK10-003-HiBit D44A (ligand)
chain: MTQSENSCTHFPGNLPNMLRDLRDAFSRVKTFFQMKDQLDNLLLKESLLEDFKGYLGCQALSEMIQFYLEEVMPQAENQDPDIKAHVNSLGENLKTLRLRLRRCHRFLPCENKSKAVEQVKNAFNKLQEKGIYKAMSEFDIFINYIEAYLYKTITPEFANMLRDLRDAFSRVKTFFQMKDQLANLLLKESLLEDFKGYLGCQALSEMIQFYLEEVMPQAENQDPDIKAHVNSLGENLKTLRLRLRRCHRFLPCENKSKAVEQVKNAFNKLQEKGIYKAMSEFDIFINYIEAYMTMGGVSGWRLFKKIS
B15: ORK10-003-HiBit K34A (ligand)
chain: MTQSENSCTHFPGNLPNMLRDLRDAFSRVKTFFQMKDQLDNLLLKESLLEDFKGYLGCQALSEMIQFYLEEVMPQAENQDPDIKAHVNSLGENLKTLRLRLRRCHRFLPCENKSKAVEQVKNAFNKLQEKGIYKAMSEFDIFINYIEAYLYKTITPEFANMLRDLRDAFSRVATFFQMKDQLDNLLLKESLLEDFKGYLGCQALSEMIQFYLEEVMPQAENQDPDIKAHVNSLGENLKTLRLRLRRCHRFLPCENKSKAVEQVKNAFNKLQEKGIYKAMSEFDIFINYIEAYMTMGGVSGWRLFKKIS
B16: ORK10-003-HiBit E50A (ligand)
chain: MTQSENSCTHFPGNLPNMLRDLRDAFSRVKTFFQMKDQLDNLLLKESLLEDFKGYLGCQALSEMIQFYLEEVMPQAENQDPDIKAHVNSLGENLKTLRLRLRRCHRFLPCENKSKAVEQVKNAFNKLQEKGIYKAMSEFDIFINYIEAYLYKTITPEFANMLRDLRDAFSRVKTFFQMKDQLDNLLLKASLLEDFKGYLGCQALSEMIQFYLEEVMPQAENQDPDIKAHVNSLGENLKTLRLRLRRCHRFLPCENKSKAVEQVKNAFNKLQEKGIYKAMSEFDIFINYIEAYMTMGGVSGWRLFKKIS
B17: ORK10-003-HiBit D44N (ligand)
chain: MTQSENSCTHFPGNLPNMLRDLRDAFSRVKTFFQMKDQLDNLLLKESLLEDFKGYLGCQALSEMIQFYLEEVMPQAENQDPDIKAHVNSLGENLKTLRLRLRRCHRFLPCENKSKAVEQVKNAFNKLQEKGIYKAMSEFDIFINYIEAYLYKTITPEFANMLRDLRDAFSRVKTFFQMKDQLNNLLLKESLLEDFKGYLGCQALSEMIQFYLEEVMPQAENQDPDIKAHVNSLGENLKTLRLRLRRCHRFLPCENKSKAVEQVKNAFNKLQEKGIYKAMSEFDIFINYIEAYMTMGGVSGWRLFKKIS

Chain of CSF1 receptor (CSF1R) (P07333 20-972 limits assumed): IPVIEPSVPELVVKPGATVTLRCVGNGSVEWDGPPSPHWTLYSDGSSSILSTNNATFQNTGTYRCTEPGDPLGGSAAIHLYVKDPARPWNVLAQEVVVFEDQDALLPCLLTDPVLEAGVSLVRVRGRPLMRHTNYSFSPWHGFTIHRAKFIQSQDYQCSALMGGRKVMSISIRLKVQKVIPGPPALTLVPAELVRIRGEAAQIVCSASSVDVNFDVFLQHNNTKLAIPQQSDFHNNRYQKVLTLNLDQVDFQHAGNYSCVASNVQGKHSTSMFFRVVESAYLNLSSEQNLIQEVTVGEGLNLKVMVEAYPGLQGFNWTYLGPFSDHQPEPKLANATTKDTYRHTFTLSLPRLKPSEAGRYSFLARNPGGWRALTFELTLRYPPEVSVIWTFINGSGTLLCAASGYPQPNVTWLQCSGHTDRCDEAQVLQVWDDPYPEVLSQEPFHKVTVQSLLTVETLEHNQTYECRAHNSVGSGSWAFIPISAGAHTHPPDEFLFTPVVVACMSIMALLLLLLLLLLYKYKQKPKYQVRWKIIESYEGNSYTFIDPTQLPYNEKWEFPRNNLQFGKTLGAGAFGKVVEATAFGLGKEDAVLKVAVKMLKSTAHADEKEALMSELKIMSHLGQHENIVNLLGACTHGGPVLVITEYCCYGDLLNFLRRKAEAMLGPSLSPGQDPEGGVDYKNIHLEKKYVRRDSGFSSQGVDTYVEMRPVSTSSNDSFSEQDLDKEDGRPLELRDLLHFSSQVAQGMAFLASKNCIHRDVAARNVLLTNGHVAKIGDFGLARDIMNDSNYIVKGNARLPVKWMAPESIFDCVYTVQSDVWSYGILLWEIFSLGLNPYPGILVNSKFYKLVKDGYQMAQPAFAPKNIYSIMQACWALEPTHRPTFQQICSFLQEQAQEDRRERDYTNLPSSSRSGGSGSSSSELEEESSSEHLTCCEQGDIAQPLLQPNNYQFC

One assay concerns the target CSF1 receptor (CSF1R) (UniProt P07333). The experiment in a line: cell-based or functional assay.
Regarding B1, the CSF1 EC-50, HEK293 CSF1R/SRE reporter worked out at 7.34e-10; the EC50, HEK293 CSF1R/SRE reporter, biological replica 1 came to 1.88e-09; the EC50, HEK293 CSF1R/SRE reporter, biological replica 2 turned out to be 5.58e-09; the EC-50, HEK293 CSF1R/SRE reporter, biological replica 1 was determined as 4.52e-10. This molecule registered an EC-50, HEK293 CSF1R/SRE reporter, biological replica 2 of 3.37e-10; a Max activation value, HEK293 CSF1R/SRE reporter, biological replica 1 of 8.49; a Max activation value, HEK293 CSF1R/SRE reporter, biological replica 2 of 1.14.
As for B2, the EC50, HEK293 CSF1R/SRE reporter, biological replica 1 was 1.27e-08 and the EC50, HEK293 CSF1R/SRE reporter, biological replica 2 was determined as 2.49e-08.
With B3, the EC50, HEK293 CSF1R/SRE reporter, biological replica 1 was 2.66e-09 and the EC50, HEK293 CSF1R/SRE reporter, biological replica 2 came to 1.18e-08.
Turning to B4, the EC50, HEK293 CSF1R/SRE reporter, biological replica 1 came out at 6.23e-09 and the EC50, HEK293 CSF1R/SRE reporter, biological replica 2 worked out at 2.1e-08.
Regarding B5, the EC50, HEK293 CSF1R/SRE reporter, biological replica 1 came out at 2.7e-09 and the EC50, HEK293 CSF1R/SRE reporter, biological replica 2 was found to be 7.94e-09.
Molecule B6 had an EC-50, HEK293 CSF1R/SRE reporter, biological replica 1 of 8.8e-10; an EC-50, HEK293 CSF1R/SRE reporter, biological replica 2 of 4.43e-10; a Max activation value, HEK293 CSF1R/SRE reporter, biological replica 1 of 8.86; a Max activation value, HEK293 CSF1R/SRE reporter, biological replica 2 of 1.37.
Take B7: the EC-50, HEK293 CSF1R/SRE reporter, biological replica 1 worked out at 1e-09; the EC-50, HEK293 CSF1R/SRE reporter, biological replica 2 came to 4.37e-10; the Max activation value, HEK293 CSF1R/SRE reporter, biological replica 1 amounted to 7.64; the Max activation value, HEK293 CSF1R/SRE reporter, biological replica 2 worked out at 1.28.
Turning to B8, the EC50, HEK293 CSF1R/SRE reporter, biological replica 1 was found to be 1.08e-08 and the EC50, HEK293 CSF1R/SRE reporter, biological replica 2 is 6.77e-08.
Take B9: the EC50, HEK293 CSF1R/SRE reporter, biological replica 1 turned out to be 2.51e-09 and the EC50, HEK293 CSF1R/SRE reporter, biological replica 2 amounted to 1.99e-08.
Molecule B10 had an EC50, HEK293 CSF1R/SRE reporter, biological replica 1 of 6.76e-09 and an EC50, HEK293 CSF1R/SRE reporter, biological replica 2 of 1.28e-08.
On to B11, for which the EC-50, HEK293 CSF1R/SRE reporter, biological replica 1 came to 1.18e-09; the EC-50, HEK293 CSF1R/SRE reporter, biological replica 2 was found to be 5.97e-10; the Max activation value, HEK293 CSF1R/SRE reporter, biological replica 1 came to 8.55; the Max activation value, HEK293 CSF1R/SRE reporter, biological replica 2 worked out at 1.14.
For B12, the EC-50, HEK293 CSF1R/SRE reporter was 1.45e-09.

A further assay deals with T1, IL10RA (UniProt Q13651 22-578, limits assumed).
T1 sequence (looked up): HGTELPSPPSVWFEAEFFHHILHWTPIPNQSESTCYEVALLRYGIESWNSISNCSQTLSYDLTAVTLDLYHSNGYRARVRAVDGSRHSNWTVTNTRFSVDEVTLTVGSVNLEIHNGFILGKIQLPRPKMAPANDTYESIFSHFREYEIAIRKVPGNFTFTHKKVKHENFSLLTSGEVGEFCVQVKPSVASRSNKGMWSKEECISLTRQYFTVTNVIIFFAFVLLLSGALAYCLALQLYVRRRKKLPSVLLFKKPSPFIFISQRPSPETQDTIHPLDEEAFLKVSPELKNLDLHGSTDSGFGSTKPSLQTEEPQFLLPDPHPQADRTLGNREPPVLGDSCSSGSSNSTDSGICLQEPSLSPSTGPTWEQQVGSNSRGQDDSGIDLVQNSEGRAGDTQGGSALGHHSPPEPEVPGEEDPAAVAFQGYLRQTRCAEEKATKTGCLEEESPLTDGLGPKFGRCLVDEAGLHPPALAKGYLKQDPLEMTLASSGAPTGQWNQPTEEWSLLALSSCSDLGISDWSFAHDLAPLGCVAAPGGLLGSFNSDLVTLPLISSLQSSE
The experiment in a line: cell-based or functional assay.
As to B13, the “EC-50, HEK-Blue IL-10 reporter cells” value was found to be 1.51e-10.
Regarding B14, the “EC-50, HEK-Blue IL-10 reporter cells” value amounted to 2.01e-09.
Regarding B15, the “EC-50, HEK-Blue IL-10 reporter cells” value was found to be 9.22e-10.
For B16, the “EC-50, HEK-Blue IL-10 reporter cells” value came to 5.43e-11.
As to B17, the “EC-50, HEK-Blue IL-10 reporter cells” value was found to be 4.37e-10.
